From US9688719B2, “Glycogen synthase kinase-3 inhibitors” (Ramot at Tel-Aviv University Ltd., priority 2011, dated 2017)

What was measured:
pIRS-1 = assay: In vitro kinase assay of GSK-3β mutants with substrate pIRS-1; format: biochemical; details: mean ± SEM; WT set to 100%
Protocol: (§1) HEK-293 cells were grown in Dulbecco's Modified Eagle's Medium (DMEM), supplemented with 10% fetal calf serum (FCS), 2 mM glutamine, 100 units/ml penicillin, and 100 μg/ml streptomycin. HEK-293 cells were transiently transfected with indicated constructs, using calcium phosphate method as described [Ilouz et al. (2006) supra]. Cells were lysed in ice-cold buffer G (20 mM Tris-HCl, pH 7.5, 10 mM β-glycerophosphate, 10% glycerol, 1 mM EGTA, 1 mM EDTA, 50 mM NaF, 5 mM sodium pyrophosphate, 0.5 mM orthovanadate, 1 mM benzamidine, 10 μg/ml leupeptin, 5 μg/ml aprotinin, 1 μg/ml pepstatin, and 0.5% Triton X100). Cell extracts were centrifuged for 30 minutes at 15,000×g. Supernatants were collected, and equal amounts of proteins were boiled with SDS sample buffer and subjected to gel electrophoresis (7.5-12% polyacrylamide gel), transferred to nitrocellulose membranes, and immunoblotted with indicated antibodies. For partial purification, cells were lysed in buffer H (20 mM Tris, pH 7.3, 1 mM EGTA, 1 mM EDTA, 1 mM orthovanadate, 25 μg/ml leupeptin, 25 μg/ml aprotinin, and 25 μg/ml pepstatin A, 500 nM microcystine LR, and 0.25% Triton X100). The lysates were centrifuged at 15,000×g. The resulting supernatants were passed through DE-52 (Whatman, Maidstone, England) mini-columns that were equilibrated with buffer H. GSK-3β proteins were eluted with the same buffer containing 0.02 M NaCl. Equal amounts of proteins were used for in vitro kinase assays.
(§2) The GSK-3β proteins (WT or mutants) were incubated with indicated substrate in a reaction mixture (50 mM Tris-HCl, pH 7.3, 10 mM magnesium acetate, and 0.01% β-mercaptoethanol) together with 100 μM ^32P[γ-ATP] (0.5 μCi/assay) for 15 minutes. Reactions were stopped by spotting on p81 paper (Whatman) washed with phosphoric acid, and counted for radioactivity as previously described [Ilouz et al. (2006) supra]. In assays from cells overexpressing GSK-3 proteins, the activity of the endogenous GSK-3 that was determined in cells transfected with the pCMV4 vector was subtracted from the activity values obtained for WT and mutants.
(§3) The GSK-3β mutants were partially purified by ion exchange chromatography, and their abilities to phosphorylate peptide substrates were tested in in vitro kinase assays. The substrates were: pIRS-1, p9CREB, and pGS-1, phosphorylated peptides derived from the insulin receptor substrate-1 (IRS-1), cAMP responsive element binding protein (CREB), and glycogen synthase, respectively.

p9CREB = assay: In vitro kinase assay of GSK-3β mutants with substrate p9CREB; format: biochemical; details: mean ± SEM; WT set to 100%
Protocol: as §1, §2, §3

pGS-1 = assay: In vitro kinase assay of GSK-3β mutants with substrate pGS-1; format: biochemical; details: mean ± SEM; WT set to 100%
Protocol: as §1, §2, §3

[1] = system: CREB (serine 129) and N'IRS-1 (serine 332); assay: Phosphorylation of protein substrates in HEK-293 cells expressing GSK-3β WT or F93A; format: cell-based; details: forskolin or PMA treated, versus WT-GSK-3β, FIGS. 1E-H
Protocol: The role of Phe93 in substrate binding by employing a cellular system and protein substrates (i.e., not peptides) was further explored. To this end, the WT-GSK-3β and F93A mutant were expressed in HEK-293 cells together with GSK-3 substrates CREB or N′IRS-1 (the N-terminal region of IRS-1). Because GSK-3 requires pre-phosphorylation of its substrates, the cells were treated with forskolin to enhance CREB phosphorylation via activation of cAMP dependent kinase (PKA), or with phorbol ester (PMA) to enhance N′IRS-1 phosphorylation via activation of protein kinase C (PKC).
The phosphorylation of CREB at serine 129, and N′IRS-1 at serine 332 (both GSK-3 phosphorylation sites) was then examined.
Thus, HEK293 cells were co-transfected with WT-GSK-3β or F93A plasmids together with construct coding for CREB. Cells were treated with forskolin (10 μM, 1 hour), and cell extracts were subjected to Western blot analysis using anti-phospho CREB (Ser 129/133) antibody, as presented in FIG. 1E. Expression levels of CREB and GSK-3 proteins are indicated. Results are means of three independent experiments ±SEM.
A similar assay was conducted using N′IRS-1 cDNA construct instead of CREB, and cells were treated with PMA (100 nM, 30 minutes). Expression levels of N′IRS-1 and GSK-3β are indicated. Results are means of three independent experiments ±SEM.

B1: F93A: GSK-3β mutant, F93 replaced by alanine (protein)
chain: MSGRPRTTSFAESCKPVQQPSAFGSMKVSRDKDGSKVTTVVATPGQGPDRPQEVSYTDTKVIGNGSFGVVYQAKLCDSGELVAIKKVLQDKRAKNRELQIMRKLDHCNIVRLRYFFYSSGEKKDEVYLNLVLDYVPETVYRVARHYSRAKQTLPVIYVKLYMYQLFRSLAYIHSFGICHRDIKPQNLLLDPDTAVLKLCDFGSAKQLVRGEPNVSYICSRYYRAPELIFGATDYTSSIDVWSAGCVLAELLLGQPIFPGDSGVDQLVEIIKVLGTPTREQIREMNPNYTEFKFPQIKAHPWTKDSSGTGHFTSGVRVFRPRTPPEAIALCSRLLEYTPTARLTPLEACAHSFFDELRDPNVKLPNGRDTPALFNFTTQELSSNPPLATILIPPHARIQAAASTPTNATAASDANTGDRGQTNNAASASASNST
modifications: GSK-3 beta, F93A mutant
notes: GSK-3β mutant, F93 replaced by alanine
pIRS-1
  Substrate phosphorylation (% of WT GSK-3β), pIRS-1: 42 ± 13 % of WTGSK-3β
p9CREB
  Substrate phosphorylation (% of WT GSK-3β), p9CREB: 46 ± 2 % of WTGSK-3β
pGS-1
  Substrate phosphorylation (% of WT GSK-3β), pGS-1: 13 ± 7 % of WTGSK-3β
[1]
  phosphorylation of CREB and N'IRS-1 in cells: did not enhance the phosphorylation
